{"source": "the RNAGym collection of RNA variant scans (doi:10.7554/elife.80360)", "parents": {"B1": {"name": "Twister Ribozyme (parent)", "chain": "AACACUGCCAAUGCCGGUCCCAAGCCCGGAUAAAAGUGGAGGGGGCGG"}}}
{"variants_of": "B1", "experiment": "self-cleavage, relative activity (ratio to wild type); higher = more cleavage; co-transcriptional"}
{"variant": "AACACUGCCAAUGACGGUCCCAAGCCCGGAUUAAAGUGGAGGGGGCGG", "note": "[C14A A32U]", "self-cleavage": 0.848}
{"variant": "AACACUGCCAAUUCCGGUCCCAAGCCCGGAUAAAAGUGGAGGCGGCGG", "note": "[G13U G43C]", "self-cleavage": 0.137}
{"variant": "AACACUGCCAAUUCCGGUCCCAAGCCCGGAUAAAAGUGGAGGUGGCGG", "note": "[G13U G43U]", "self-cleavage": 0.155}
{"variant": "AACACUGCCAAUUCCGGUCCCAAGCCCGGAUAAAAGUAGAGGGGGCGG", "note": "[G13U G38A]", "self-cleavage": 0.226}
{"variant": "AACACUGCCAAUUCCGGUCCCAAGCCCGGAUAAAAGUGGAGGGUGCGG", "note": "[G13U G44U]", "self-cleavage": 0.428}
{"variant": "AACACUGCCAAUUCCGGUCCCAAGCCCGGAUAAAAGUGGAGGGAGCGG", "note": "[G13U G44A]", "self-cleavage": 0.821}
{"variant": "AACACUGCCAAUUCCGGUCCCAAGCCCGGAUAAAAGUGGACGGGGCGG", "note": "[G13U G41C]", "self-cleavage": 0.149}
{"variant": "AACACUGCCAAUUCCGGUCCCAAGCCCGGAAAAAAGUGGAGGGGGCGG", "note": "[G13U U31A]", "self-cleavage": 0.43}
{"variant": "AACACUGCCAAUUCCGGUCCCAAGCCCGGAGAAAAGUGGAGGGGGCGG", "note": "[G13U U31G]", "self-cleavage": 0.667}
{"variant": "AACACUGCCAAUGACGGUCGCAAGCCCGGAUAAAAGUGGAGGGGGCGG", "note": "[C14A C20G]", "self-cleavage": 0.126}
{"variant": "AACACUGCCAAUGACGGUCACAAGCCCGGAUAAAAGUGGAGGGGGCGG", "note": "[C14A C20A]", "self-cleavage": 0.165}
{"variant": "AACACUGCCAAUGACGGUCCCACGCCCGGAUAAAAGUGGAGGGGGCGG", "note": "[C14A A23C]", "self-cleavage": 0.348}
{"variant": "AACACUGCCAAUGACGGUCCCAAGCCCGGAUAAAAGUGGAGGGGGCGC", "note": "[C14A G48C]", "self-cleavage": 1.04}
{"variant": "AACACUGCCAAUGACGGUCCCAACCCCGGAUAAAAGUGGAGGGGGCGG", "note": "[C14A G24C]", "self-cleavage": 0.0765}
{"variant": "AACACUGCCAAUGACGGUCCCAAUCCCGGAUAAAAGUGGAGGGGGCGG", "note": "[C14A G24U]", "self-cleavage": 0.146}
{"variant": "AACACUGCCAAUGACGGUCCCAAACCCGGAUAAAAGUGGAGGGGGCGG", "note": "[C14A G24A]", "self-cleavage": 0.18}
{"variant": "AACACUGCCAAUGGCGGUCCCAGGCCCGGAUAAAAGUGGAGGGGGCGG", "note": "[C14G A23G]", "self-cleavage": 0.103}
{"variant": "AACACUGCCAAUUCCGGUCCCAAGCCCGGAUAGAAGUGGAGGGGGCGG", "note": "[G13U A33G]", "self-cleavage": 0.68}
{"variant": "AACACUGCCAAUUCCGGUCCCAAGCCCGGAUAUAAGUGGAGGGGGCGG", "note": "[G13U A33U]", "self-cleavage": 0.403}
{"variant": "AACACUGCCAAUUCCGGUCCGAAGCCCGGAUAAAAGUGGAGGGGGCGG", "note": "[G13U C21G]", "self-cleavage": 0.0567}
{"variant": "AACACUGCCAAUUCCGGUCCAAAGCCCGGAUAAAAGUGGAGGGGGCGG", "note": "[G13U C21A]", "self-cleavage": 0.0794}
{"variant": "AACACUGCCAAUUCCGGUCCCAAGCCCGGAUAAAAGUGGAGGGGUCGG", "note": "[G13U G45U]", "self-cleavage": 0.212}
{"variant": "AACACUGCCAAUUCCGGUCCCAAGCCCGGAUAAAAGUGGAGGGGCCGG", "note": "[G13U G45C]", "self-cleavage": 0.194}
{"variant": "AACACUGCCAAUGACGGUCCCAAGCCCGGAUAAAAGUGGAGGGGGGGG", "note": "[C14A C46G]", "self-cleavage": 0.87}
{"variant": "AACACUGCCAAUGACGGUCCAAAGCCCGGAUAAAAGUGGAGGGGGCGG", "note": "[C14A C21A]", "self-cleavage": 0.128}
{"variant": "AACACUGCCAAUGACGGUCCGAAGCCCGGAUAAAAGUGGAGGGGGCGG", "note": "[C14A C21G]", "self-cleavage": 0.1}
{"variant": "AACACUGCCAAUUCCGGUCCCAAGCCCGGAUAAAAGUGGGGGGGGCGG", "note": "[G13U A40G]", "self-cleavage": 0.152}
{"variant": "AACACUGCCAAUUCCGGUCCCAAGCCCGGAUAAAAGUGGAGGGGGCAG", "note": "[G13U G47A]", "self-cleavage": 0.228}
{"variant": "AACACUGCCAAUUCCGGUCCCAAGCCCGGAUAAAAGUGGAGGGGGCCG", "note": "[G13U G47C]", "self-cleavage": 0.179}
{"variant": "AACACUGCCAAUUCCGGUCCCAAGCCCGGAUAAAAGCGGAGGGGGCGG", "note": "[G13U U37C]", "self-cleavage": 0.133}
{"variant": "AACACUGCCAAUUCCGGUCCCAAGCACGGAUAAAAGUGGAGGGGGCGG", "note": "[G13U C26A]", "self-cleavage": 0.129}
{"variant": "AACACUGCCAAUUCCGGUCCCAAGCCCGGAUAAAAGUGGAGGGGGGGG", "note": "[G13U C46G]", "self-cleavage": 0.328}
{"variant": "AACACUGCCAAUUCCGGUCCCAAGCCCGGAUAAAAGUGGAGGGGGUGG", "note": "[G13U C46U]", "self-cleavage": 0.586}
{"variant": "AACACUGCCAAUUCCGGUCCCAAGCCCGGAUAAAAGUGGAGGGGGAGG", "note": "[G13U C46A]", "self-cleavage": 0.361}
{"variant": "AACACUGCCAAUGGCGGUCCCAAGCCCGGAUUAAAGUGGAGGGGGCGG", "note": "[C14G A32U]", "self-cleavage": 0.184}
{"variant": "AACACUGCCAAUUCCGGUCCCAAGCCCGGAUAAAAGUGGAGGGGGCGU", "note": "[G13U G48U]", "self-cleavage": 0.357}
{"variant": "AACACUGCCAAUUCCGGUCCCAAGCCCGGAUAAAAGUGGAGGGGGCGA", "note": "[G13U G48A]", "self-cleavage": 0.309}
{"variant": "AACACUGCCAAUGACGGUCCCAAGCCCGGAUAAAAGUGGAGGGGGCGG", "note": "[C14A]", "self-cleavage": 0.923}
{"variant": "AACACUGCCAAUGGCGGUCCCAAGCCCGGAUAAAAGUGGAGGGGGCGG", "note": "[C14G]", "self-cleavage": 0.171}
{"variant": "AACACUGCCAAUGACGGUCCCAAGCCCGGAUAAAAGUGGAGGGCGCGG", "note": "[C14A G44C]", "self-cleavage": 0.772}
{"variant": "AACACUGCCAAUGACGGUCCCAAGCCCGGAUAAAAGUGGAGGGAGCGG", "note": "[C14A G44A]", "self-cleavage": 0.838}
{"variant": "AACACUGCCAAUGACGGUCCCAAGCCCGGAUAAAAGUGGAGGGGACGG", "note": "[C14A G45A]", "self-cleavage": 0.801}
{"variant": "AACACUGCCAAUGACGGUCCCAAGCCCGGAUAAAAGUGGAGGGGCCGG", "note": "[C14A G45C]", "self-cleavage": 0.58}
{"variant": "AACACUGCCAAUUCCGGUCCCACGCCCGGAUAAAAGUGGAGGGGGCGG", "note": "[G13U A23C]", "self-cleavage": 0.0557}
{"variant": "AACACUGCCAAUUCCGGUCCCAUGCCCGGAUAAAAGUGGAGGGGGCGG", "note": "[G13U A23U]", "self-cleavage": 0.0818}
{"variant": "AACACUGCCAAUGACGGUCCCAAGCCCGGAUAAAAGUGGAGGAGGCGG", "note": "[C14A G43A]", "self-cleavage": 0.309}
{"variant": "AACACUGCCAAUGACGGUCCCAAGCCCGGAUAAAAGUGGAGGCGGCGG", "note": "[C14A G43C]", "self-cleavage": 0.182}
{"variant": "AACACUGCCAAUUCCGGUCCCAAGCCCGGAUAAAAGUGGAGCGGGCGG", "note": "[G13U G42C]", "self-cleavage": 0.181}
{"variant": "AACACUGCCAAUUCCGGUCCCAAGCCCGGAUAAAAGUGGAGUGGGCGG", "note": "[G13U G42U]", "self-cleavage": 0.114}
{"variant": "AACACUGCCAAUUCCGGUCCCAAGCCCGGAUAAAAGUGGAGAGGGCGG", "note": "[G13U G42A]", "self-cleavage": 0.139}
{"variant": "AACACUGCCAAUGACCGUCCCAAGCCCGGAUAAAAGUGGAGGGGGCGG", "note": "[C14A G16C]", "self-cleavage": 0.0948}
{"variant": "AACACUGCCAAUUCCGGUCCCAAGCCCGGAUAAAAGUGAAGGGGGCGG", "note": "[G13U G39A]", "self-cleavage": 0.113}
{"variant": "AACACUGCCAAUGACGGUCCCAAGCCCGGAUAAAAGUGGGGGGGGCGG", "note": "[C14A A40G]", "self-cleavage": 0.136}
{"variant": "AACACUGCCAAUGACGGUCCCAAGCCCGGAUAAAAGUGGCGGGGGCGG", "note": "[C14A A40C]", "self-cleavage": 0.189}
